# B1: porcine pancreas lipase (PP-L) (Sus scrofa) (protein)
# chain: SEVCFPRLGCFSDDAPWAGIVQRPLKILPWSPKDVDTRFLLYTNQNQNNYQELVADPSTITNSNFRMDRKTRFIIHGFIDKGEEDWLSNICKNLFKVESVNCICVDWKGGSRTGYTQASQNIRIVGAEVAYFVEVLKSSLGYSPSNVHVIGHSLGSHAAGEAGRRTNGTIERITGLDPAEPCFQGTPELVRLDPSDAKFVDVIHTDAAPIIPNLGFGMSQTVGHLDFFPNGGKQMPGCQKNILSQIVDIDGIWEGTRDFVACNHLRSYKYYADSILNPDGFAGFPCDSYNVFTANKCFPCPSEGCPQMGHYADRFPGKTNGVSQVFYLNTGDASNFARWRYKVSVTLSGKKVTGHILVSLFGNEGNSRQYEIYKGTLQPDNTHSDEFDSDVEVGDLQKVKFIWYNNNVINPTLPRVGASKITVERNDGKVYDFCSQETVREEVLLTLNPC
# Substrate: CCCCC/C=C\C/C=C\CCCCCCCC(=O)OCC(O)COC(=O)CCCCCCC/C=C\C/C=C\CCCCC
# Assay: differential pulse voltammetry of released linoleic acid, CoPC/MWCNT carbon paste electrode
# Type: biochemical, Sus scrofa
# Details: sodium borate 0.1 M pH 9, room temperature, 25 min, Lineweaver-Burk plot, substrate in paraffin oil
protein,measurement,value
B1,Km,290 µM
